From publication PMC8983682 (2022)

Target: N1-MI15-WT (recombinant soluble NA head of A/Michigan/45/2015 fused to hVASP) (influenza A virus A/Michigan/45/2015)
Assay: BLI

B1: CD6 IgG (antibody, V domains shown)
VH: QVKLQESGGGLVQPKGSLKLSCAASGFTFNTYAMNWVRQAPGKGLEWVARIRSKSNNYATFYADSVKDRFTISRDDSQSMLYLQMHNLKTDDTAMYYCVRPSIYYYASGYLDVWGAGTTVTVSS
VL: QIVLSQSPAILSASPGEKVTMTCRTSSSVSYMHWYQQKPGSSPKPWIYATSNLASGVPFRFSGSGSGTSYSLTISRVEAEDAATYYCQQWNSNPPTFGGGTKLEIK
Kd: 1.3 nM

B2: 1G01 IgG (antibody, V domains shown)
VH: EVQLVESGGRALRPGGSLRLSCAASGFKFDDYAMSWVRQVPGKGLEFVSGLNWNGDITAYTDSVKGRFTVSRDNAKNSLYLHINSPKPEDTALYYCARTSSWGDYTRGPEPKITWYFDLWGRGTLVTVSS
VL: DIQLTQSPSFLSASVGDRITITCRASQGIDGYLAWYQQRPGKAPNLLIYAASLLQSGVPSRFSGSGYGTEFTLTISSLQPEDFATYYCQHLDSYPLFTFGPGTKVDIK
Kd: < 0.001 nM
